Among the data in PMC8486122, “Structural basis for antibody binding to adenylate cyclase toxin reveals RTX linkers as neutralization-sensitive epitopes” (PLoS Pathogens, 2021) are Kd values, retold here.

In assay [1] the target is T1, RTX751 (ACT residues 751–1706) (Bordetella pertussis (strain Tohama I / …, UniProt P0DKX7)).
T1 construct: also called full RTX domain; full RTX
Briefly: SPR. To be noted: both partners purified.

The target in assay [2] is T2, 123cap (cap fusion variant F5: RTX blocks I–III fused to the block V capping structure) (Bordetella pertussis (strain not named …, stabilised)).
T2 construct: source: E. coli BL21 DE3, purified (Ni-NTA, SEC); not shown: 8xHis, N-terminal, kept
T2 chain: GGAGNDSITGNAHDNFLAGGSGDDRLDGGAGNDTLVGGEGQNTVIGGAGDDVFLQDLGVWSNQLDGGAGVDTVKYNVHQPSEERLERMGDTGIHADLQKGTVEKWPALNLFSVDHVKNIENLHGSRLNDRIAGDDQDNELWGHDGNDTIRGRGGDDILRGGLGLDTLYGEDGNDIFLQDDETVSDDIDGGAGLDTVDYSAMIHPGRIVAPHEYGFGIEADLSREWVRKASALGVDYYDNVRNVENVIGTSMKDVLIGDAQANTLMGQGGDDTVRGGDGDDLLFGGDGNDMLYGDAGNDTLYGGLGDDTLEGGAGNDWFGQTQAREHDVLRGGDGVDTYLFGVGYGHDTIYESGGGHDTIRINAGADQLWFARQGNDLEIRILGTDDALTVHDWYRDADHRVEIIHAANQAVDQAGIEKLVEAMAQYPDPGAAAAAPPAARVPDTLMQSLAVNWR
Briefly: SPR. The conditions noted are these: both partners purified.

B1: M2B10 Fab (Fab, V domains shown)
VH: EVQLQQSGAELVRPGTSVKVSCKASGYAFTNYLIEWVKQRPGQGLEWIGVINPGIGNTNYNEKFKGKATLTADKSSSTVYMQLSSLTSDDSAVYFCARGLNYGSSQHWYFDVWGAGTSVTVSS
VL: IVMTQSPAILSASLGERVTMTCTASSSVSSSYLHWYQQKPGSSPKLWIYSTSNLASGVPARFSGSGSGTSYSLTISSMEAEDAATYYCHQYHRSPPTFGAGTKLEIK
On to B1, for which the Kd in assay [1] is 0.75 nM; in assay [2], 0.6 nM.

B2: M1H5 Fab (Fab, V domains shown)
VH: EVNLVESGGDLVKPGGSLKLSCAASGFTFSSYGMSWVRQTPDKRLEWVATISSGGTYTYYPDSVKGRFTISRDNAKNTLYLQMSSLKSEDTAMYYCAREIMRGGGYYFDYWSQGTTLTVSS
VL: DIQMIQSTSSLSASLGDRVTISCRASQDISNYLNWYQQKPDGTVKLLIYYTSRLHSGVPSRFSGSGSGTDYSLTISNLEQEDIATYFCQQGNTLPYTFGGGTKLEIK
As for B2, the Kd in assay [1] turned out to be 0.8 nM; in assay [2], 0.7 nM.

For orientation: Kd means a measure of binding affinity in units of concentration.
